The results in this text go back to US20030096275.

In general, Kd refers to the concentration at which binding is half-saturated. Low values mean tighter binding, high ones weaker binding.

The target of the series is T1, ArsR (Escherichia coli) (UniProt P15905).
T1 sequence: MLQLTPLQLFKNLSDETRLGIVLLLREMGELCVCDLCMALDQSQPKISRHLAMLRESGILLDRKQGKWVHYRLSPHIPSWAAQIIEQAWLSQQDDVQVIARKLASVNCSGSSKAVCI
As to the kind of experiment: SPR. The conditions noted are these: ±10 nM, HBS-EP pH 7.4, 25 C.

The mark [1] stands for this setting: one value stated for all sequences although affinities said to differ, binding inhibited about 55% by 100 uM phenylarsine oxide ….
Where [2] appears, read: one value stated for all sequences.

The sequence “CTGCACTTACACATTCGTTAAGTCATATATGTTTTTGACTTA / TAAGTCAAAAACATATATGACTTAACGAATGTGTAAGTGC [CHROML1]” showed a Kd under setting [1] of 0.5 µM.

The sequence “TTAAGTCATATATGTTTTTGACTTA (double strand) [CHROMS1]” gave a Kd under setting [2] of 0.5 µM.

In turn, “TTAATCATATGCGTTTTTGGTTA / TAACCAAAAACGCATATGATT [PLASS1]” came in with a Kd under setting [2] of 0.5 µM.

Turning to “TTAATCATATGCGTTTTTGGTTATGTGTTG / CAACACATAACCAAAAACGCATATGATT [PLASL1]”, the Kd under setting [1] was found to be 0.5 µM.
